Source: PMC3201873

Target: B′ protein (GyrB C-terminal domain) of M. tuberculosis DNA gyrase (M. tuberculosis)
Assay: […]) in 50 mM Tris–HCl

B′ protein (GyrB C-terminal domain) of M. tuberculosis DNA gyrase (domain or fragment)
Kd: < 1000 nM
